In patent publication US20100129369A1:

Assays:
[1] = target: human c-Met ECD-Fc-Flis (human); experiment: HGF-blocking ELISA: HGF signal on coated c-Met ECD-Fc-Flis; Ab 7812.50 ng/mL
[2] = target: human c-Met ECD-Fc-Flis (human); experiment: HGF-blocking ELISA: HGF signal on coated c-Met ECD-Fc-Flis; Ab 0.48 ng/mL
[3] = target: human c-Met ECD-Fc-Flis (human); experiment: HGF-blocking ELISA: HGF signal on coated c-Met ECD-Fc-Flis; Ab 30.52 ng/mL
[4] = target: human c-Met ECD-Fc-Flis (human); experiment: HGF-blocking ELISA: HGF signal on coated c-Met ECD-Fc-Flis; Ab 0.00 ng/mL (HGF only)
[5] = target: human c-Met ECD-Fc-Flis (human); experiment: HGF-blocking ELISA: HGF signal on coated c-Met ECD-Fc-Flis; Ab 31250.00 ng/mL
[6] = target: human c-Met ECD-Fc-Flis (human); experiment: HGF-blocking ELISA: HGF signal on coated c-Met ECD-Fc-Flis; Ab 122.07 ng/mL
human c-Met (human) = human c-Met (human) (UniProt P08581); experiment: cell-based or functional assay
Chain of human c-Met (human) (P08581 25-1390): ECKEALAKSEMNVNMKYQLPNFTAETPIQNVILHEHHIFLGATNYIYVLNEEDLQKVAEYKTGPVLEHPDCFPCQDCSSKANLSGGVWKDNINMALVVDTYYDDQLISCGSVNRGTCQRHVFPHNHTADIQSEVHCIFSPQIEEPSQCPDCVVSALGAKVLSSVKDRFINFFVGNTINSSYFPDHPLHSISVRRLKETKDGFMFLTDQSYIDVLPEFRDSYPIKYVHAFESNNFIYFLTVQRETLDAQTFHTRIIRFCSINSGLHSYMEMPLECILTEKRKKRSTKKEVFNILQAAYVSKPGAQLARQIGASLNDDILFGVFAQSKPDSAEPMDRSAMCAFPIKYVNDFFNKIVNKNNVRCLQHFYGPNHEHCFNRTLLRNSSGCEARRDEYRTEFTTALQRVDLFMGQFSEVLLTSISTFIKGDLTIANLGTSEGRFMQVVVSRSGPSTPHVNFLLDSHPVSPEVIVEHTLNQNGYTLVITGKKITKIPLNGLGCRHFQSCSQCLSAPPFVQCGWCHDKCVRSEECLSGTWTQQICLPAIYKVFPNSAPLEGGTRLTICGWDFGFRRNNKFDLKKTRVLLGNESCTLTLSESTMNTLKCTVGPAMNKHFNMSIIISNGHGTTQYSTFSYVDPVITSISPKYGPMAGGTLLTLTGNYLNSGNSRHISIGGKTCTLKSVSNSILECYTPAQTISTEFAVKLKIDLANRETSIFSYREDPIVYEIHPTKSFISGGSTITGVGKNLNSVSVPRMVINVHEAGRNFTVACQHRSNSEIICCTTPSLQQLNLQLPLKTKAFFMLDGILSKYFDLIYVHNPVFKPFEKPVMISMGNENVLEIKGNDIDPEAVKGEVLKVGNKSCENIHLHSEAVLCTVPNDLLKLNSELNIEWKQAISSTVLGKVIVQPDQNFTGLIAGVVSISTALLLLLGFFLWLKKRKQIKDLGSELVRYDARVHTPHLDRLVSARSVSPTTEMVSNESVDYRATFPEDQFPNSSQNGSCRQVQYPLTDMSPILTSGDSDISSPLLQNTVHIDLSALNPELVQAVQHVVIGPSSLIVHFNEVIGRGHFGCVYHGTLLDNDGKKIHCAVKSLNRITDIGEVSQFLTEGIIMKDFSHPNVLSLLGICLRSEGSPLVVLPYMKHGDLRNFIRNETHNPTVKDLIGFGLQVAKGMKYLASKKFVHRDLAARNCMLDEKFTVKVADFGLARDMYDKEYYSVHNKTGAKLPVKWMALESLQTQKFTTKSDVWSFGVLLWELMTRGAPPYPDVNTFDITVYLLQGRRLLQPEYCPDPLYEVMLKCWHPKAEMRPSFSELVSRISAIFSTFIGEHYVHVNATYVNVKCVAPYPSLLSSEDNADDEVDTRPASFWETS

[7] = target: human c-Met ECD-Fc-Flis (human); experiment: HGF-blocking ELISA: HGF signal on coated c-Met ECD-Fc-Flis; Ab 488.28 ng/mL
[8] = target: human c-Met ECD-Fc-Flis (human); experiment: HGF-blocking ELISA: HGF signal on coated c-Met ECD-Fc-Flis; Ab 125000.00 ng/mL
[9] = target: human c-Met ECD-Fc-Flis (human); experiment: HGF-blocking ELISA: HGF signal on coated c-Met ECD-Fc-Flis; Ab 7.63 ng/mL
[10] = target: human c-Met ECD-Fc-Flis (human); experiment: HGF-blocking ELISA: HGF signal on coated c-Met ECD-Fc-Flis; Ab 1.91 ng/mL
[11] = target: human c-Met ECD-Fc-Flis (human); experiment: HGF-blocking ELISA: HGF signal on coated c-Met ECD-Fc-Flis; Ab 1953.13 ng/mL

Chain of human c-Met ECD-Fc-Flis (human) (chain, as listed by the source): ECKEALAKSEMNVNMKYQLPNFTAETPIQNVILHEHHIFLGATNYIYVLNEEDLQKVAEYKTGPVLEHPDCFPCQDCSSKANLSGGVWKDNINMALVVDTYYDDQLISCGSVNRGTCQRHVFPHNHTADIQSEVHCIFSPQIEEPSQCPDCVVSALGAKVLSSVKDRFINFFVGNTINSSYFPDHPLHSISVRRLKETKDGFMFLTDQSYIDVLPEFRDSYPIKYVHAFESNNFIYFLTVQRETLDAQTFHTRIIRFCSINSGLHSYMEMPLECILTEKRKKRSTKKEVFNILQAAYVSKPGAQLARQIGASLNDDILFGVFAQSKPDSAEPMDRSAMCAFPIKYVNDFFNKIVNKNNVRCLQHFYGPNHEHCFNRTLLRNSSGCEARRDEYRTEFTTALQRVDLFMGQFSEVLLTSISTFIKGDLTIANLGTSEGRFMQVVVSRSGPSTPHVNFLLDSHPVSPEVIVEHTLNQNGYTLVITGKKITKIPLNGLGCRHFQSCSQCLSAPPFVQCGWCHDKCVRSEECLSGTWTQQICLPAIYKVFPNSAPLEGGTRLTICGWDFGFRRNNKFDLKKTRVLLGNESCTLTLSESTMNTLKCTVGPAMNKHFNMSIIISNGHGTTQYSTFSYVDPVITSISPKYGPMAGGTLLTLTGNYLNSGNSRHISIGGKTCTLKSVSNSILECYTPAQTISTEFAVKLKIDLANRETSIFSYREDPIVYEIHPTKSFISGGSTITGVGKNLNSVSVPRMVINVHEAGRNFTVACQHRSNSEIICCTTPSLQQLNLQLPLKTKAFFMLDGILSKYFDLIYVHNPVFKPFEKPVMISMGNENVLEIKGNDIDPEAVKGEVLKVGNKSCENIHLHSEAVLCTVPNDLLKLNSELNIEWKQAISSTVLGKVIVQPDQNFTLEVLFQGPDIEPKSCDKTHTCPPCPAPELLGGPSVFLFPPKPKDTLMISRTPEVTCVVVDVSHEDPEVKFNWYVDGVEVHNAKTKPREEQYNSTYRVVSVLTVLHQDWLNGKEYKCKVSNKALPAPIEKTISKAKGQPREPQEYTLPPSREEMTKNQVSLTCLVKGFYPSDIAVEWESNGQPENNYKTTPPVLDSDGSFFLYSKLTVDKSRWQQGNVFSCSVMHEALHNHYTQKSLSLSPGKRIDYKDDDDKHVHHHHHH

Row | Substance | AVG A450 nm [1] | AVG A450 nm [2] | AVG A450 nm [3] | AVG A450 nm [4] | % inhibition of HGF stimulated phospho-Met (ELISA, HCT116 cells), Ab 0.0032 µg/mL (human c-Met (human)) | % inhibition of HGF stimulated phospho-Met (ELISA, HCT116 cells), Ab 0.016 µg/mL (human c-Met (human)) | % inhibition of HGF stimulated phospho-Met (ELISA, HCT116 cells), Ab 0.08 µg/mL (human c-Met (human)) | % inhibition of HGF stimulated phospho-Met (ELISA, HCT116 cells), Ab 0.4 µg/mL (human c-Met (human)) | % inhibition of HGF stimulated phospho-Met (ELISA, HCT116 cells), Ab 2 µg/mL (human c-Met (human)) | % inhibition of HGF stimulated phospho-Met (ELISA, HCT116 cells), Ab 10 µg/mL (human c-Met (human)) | AVG CPM, 3H-thymidine incorporation in MKN45 cells, Ab 0.0 ng/mL (no antibody) (human c-Met (human)) | AVG CPM, 3H-thymidine incorporation in MKN45 cells, Ab 0.1 ng/mL (human c-Met (human)) | AVG CPM, 3H-thymidine incorporation in MKN45 cells, Ab 0.4 ng/mL (human c-Met (human)) | AVG CPM, 3H-thymidine incorporation in MKN45 cells, Ab 2.6 ng/mL (human c-Met (human)) | AVG CPM, 3H-thymidine incorporation in MKN45 cells, Ab 15.4 ng/mL (human c-Met (human)) | AVG CPM, 3H-thymidine incorporation in MKN45 cells, Ab 92.6 ng/mL (human c-Met (human)) | AVG CPM, 3H-thymidine incorporation in MKN45 cells, Ab 555.6 ng/mL (human c-Met (human)) | AVG CPM, 3H-thymidine incorporation in MKN45 cells, Ab 3333.3 ng/mL (human c-Met (human)) | AVG CPM, 3H-thymidine incorporation in MKN45 cells, Ab 20000.0 ng/mL (human c-Met (human)) | Mean Fluorescence (c-Met left on the surface of MKN45 cells, FACS), Ab 5.00 ug/mL (human c-Met (human)) | also measured
1 | humanized IgG2 isotype control antibody | 2.5 A450 nm | 2.46 A450 nm | 2.41 A450 nm | 2.43 A450 nm | -10.2% | 9.49% | -1.58% | 9.31% | 17.5% | 6.24% | 50400 CPM | 44800 CPM | 46500 CPM | 48500 CPM | 50500 CPM | 47600 CPM | 51700 CPM | 49400 CPM | 45100 CPM | 130 | AVG A450 nm [5]: 2.5 A450 nm; AVG A450 nm [6]: 2.52 A450 nm; AVG A450 nm [7]: 2.53 A450 nm; AVG A450 nm [8]: 2.43 A450 nm; AVG A450 nm [9]: 2.7 A450 nm; AVG A450 nm [10]: 2.87 A450 nm; AVG A450 nm [11]: 2.43 A450 nm
2 | humanized IgG4 isotype control antibody | 2.49 A450 nm | 2.41 A450 nm | 2.63 A450 nm | 2.61 A450 nm | -14.4% | -7.96% | -21.7% | -16.1% | -6.62% | -1.47% | 48700 CPM | 53900 CPM | 55300 CPM | 54800 CPM | 53800 CPM | 54300 CPM | 54200 CPM | 54000 CPM | 50600 CPM | 135 | AVG A450 nm [5]: 2.67 A450 nm; AVG A450 nm [6]: 2.44 A450 nm; p-Met signal (pY1349 ELISA, A549 cells), Ab 0.002 µg/mL (human c-Met (human)): 0.117; p-Met signal (pY1349 ELISA, A549 cells), Ab 0.005 µg/mL (human c-Met (human)): 0.074; p-Met signal (pY1349 ELISA, A549 cells), Ab 0.014 µg/mL (human c-Met (human)): 0.074; p-Met signal (pY1349 ELISA, A549 cells), Ab 0.041 µg/mL (human c-Met (human)): 0.268; p-Met signal (pY1349 ELISA, A549 cells), Ab 0.123 µg/mL (human c-Met (human)): 0.067; p-Met signal (pY1349 ELISA, A549 cells), Ab 0.370 µg/mL (human c-Met (human)): 0.082; p-Met signal (pY1349 ELISA, A549 cells), Ab 1.113 µg/mL (human c-Met (human)): 0.087; p-Met signal (pY1349 ELISA, A549 cells), Ab 3.333 µg/mL (human c-Met (human)): 0.068; p-Met signal (pY1349 ELISA, A549 cells), Ab 10 µg/mL (human c-Met (human)): 0.077; p-Met signal (pY1349 ELISA, A549 cells), Ab 30 µg/mL (human c-Met (human)): 0.061; AVG A450 nm [7]: 2.44 A450 nm; AVG A450 nm [8]: 3 A450 nm; AVG A450 nm [9]: 2.88 A450 nm; AVG A450 nm [10]: 2.49 A450 nm; AVG A450 nm [11]: 2.27 A450 nm
3 | murine IgG isotype control antibody | – | – | – | – | -9.76% | -5.42% | -10.6% | 13.4% | 9.76% | 5.46% | 50300 CPM | 47700 CPM | 51500 CPM | 55500 CPM | 51300 CPM | 52200 CPM | 54700 CPM | 53700 CPM | 52400 CPM | 136 | –
